From patent publication US20180086837A1

Key:
[1] = target: cynomolgus CXCR4 (cynomolgus) (UniProt Q28474); test: flow cytometry, transfected HEK293T cells; normalisation reference (column 10 nM)
[2] = target: hCXCR4-V196E (human) (UniProt P61073); test: as above
[3] = target: cynomolgus CXCR4 (cynomolgus) (UniProt Q28474); test: flow cytometry, transfected HEK293T cells; normalisation reference (column 100 nM)
[4] = target: hCXCR4-V196E (human) (UniProt P61073); test: as above

Measured: % binding relative to hCXCR4

Sequence of cynomolgus CXCR4 (cynomolgus) (Q28474 whole entry): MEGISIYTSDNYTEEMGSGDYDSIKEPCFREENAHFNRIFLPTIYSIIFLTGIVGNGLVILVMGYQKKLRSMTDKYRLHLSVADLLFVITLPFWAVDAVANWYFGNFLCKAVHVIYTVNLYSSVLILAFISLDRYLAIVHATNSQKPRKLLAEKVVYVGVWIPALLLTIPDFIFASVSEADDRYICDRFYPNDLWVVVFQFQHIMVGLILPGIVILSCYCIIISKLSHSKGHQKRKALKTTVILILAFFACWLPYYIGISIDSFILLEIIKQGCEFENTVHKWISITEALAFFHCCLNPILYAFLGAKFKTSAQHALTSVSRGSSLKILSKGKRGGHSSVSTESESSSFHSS
Sequence of hCXCR4-V196E (human) (P61073 whole entry V196E): as the sequence (Q28474 whole entry) above, with I24M, H35N, R38K, K146R, S176N, V196E counted along it

anti-CXCR4 monoclonal antibody 12G5 (R&D Systems, MAB170)
100%: all assays above
